Measured values published in article PMC3597719.

Target: NS1 protein expressed in yeast cells (UniProt P14340)

NS1 protein expressed in yeast cells (from UniProt P14340 776-1127) (natural protein)
stoichiometry N: 2
